This is an account of results in paper PMC11240984.

The target in data set [1] is F-actin (fibrillar actin from rabbit skeletal muscle) (rabbit) (UniProt P68135).
The target is the same in data set [2]. Put plainly: co-sedimentation; 10 µM F-actin with 0.5 to 7.5 µM Tpm in 30 mM Hepes-Na pH 7.3, 200 mM NaCl; pelleted at 100,000 x g; SDS-PAGE of pellet and supernatant; apparent affinity, K50% = free Tpm at half-saturation of actin.
The target is the same in data set [3]. Put plainly: light scattering on heating (thermally induced dissociation of Tpm from F-actin); 20 µM phalloidin-stabilized F-actin and 10.5 µM Tpm (legend: 10 µM) in 30 mM Hepes-Na pH 7.3, 100 mM NaCl; heated to 65 °C at 1 °C/min; 350 nm, 90°; T_diss = temperature of 50% decrease in light scattering.
Data set [4] is described as follows: viscosity measurement (falling ball micro viscometer); Tpm 1 mg/mL in 30 mM Hepes-Na pH 7.3, NaCl from 30 to 200 mM, 4 mM DTT, 20 °C; excess viscosity over buffer as measure of end-to-end interactions between adjacent Tpm molecules. The conditions noted are these: other: viscosity measurement (falling ball micro viscometer).

The substance “AS-Tpm1.8, Tpm1.8 with N-terminal Ala-Ser extension (natural protein)” showed a bending stiffness of Tpm–F-actin filaments, two-beam optical trap, median (IQT, N); F-actin alone 2.35 in data set [1] of 8.1e-26 N∙m^2. In addition, the K50% in data set [2] was 0.59 µM. In data set [3], this substance came in with a T diss (temperature of half-dissociation of Tpm from F-actin) of 44.4 °C.
For “AS-Tpm1.9, Tpm1.9 with N-terminal Ala-Ser extension”, in data set [4], the “excess viscosity at 30 mM NaCl” value is given as “approximately 2.25 mPa·s for 30 mM NaCl” and the “excess viscosity at 200 mM NaCl” value is “close to 0.5 mPa·s for 200 mM NaCl”.
In turn, “AS-Tpm1.9, Tpm1.9 with N-terminal Ala-Ser extension (natural protein)” displayed a bending stiffness of Tpm–F-actin filaments, two-beam optical trap, median (IQT, N); F-actin alone 2.35 in data set [1] of 4.7e-26 N∙m^2. Also, the K50% in data set [2] came out at 0.98 µM. This substance also displayed a T diss (temperature of half-dissociation of Tpm from F-actin) in data set [3] of 47 °C.
In data set [4], “Tpm1.8, cytoplasmic tropomyosin isoform (human, TPM1 gene product)” returned a solution viscosity at 200 mM NaCl of 0.593 mPa·s.
Substance “Tpm1.8, cytoplasmic tropomyosin isoform (human, TPM1 gene product) (natural protein)” showed a bending stiffness of Tpm–F-actin filaments, two-beam optical trap, median (IQT, N); F-actin alone 2.35 in data set [1] of 3.75e-26 N∙m^2. Further, the K50% in data set [2] amounted to 0.3 µM. Moreover, in data set [3], the T diss (temperature of half-dissociation of Tpm from F-actin) was found to be 44.4 °C.
With “Tpm1.9, cytoplasmic tropomyosin isoform (human, TPM1 gene product)”, in data set [4], the “excess viscosity at 30 mM NaCl” value was “approximately 2.25 mPa·s for 30 mM NaCl”, the “excess viscosity at 200 mM NaCl” value is listed as “close to 0.5 mPa·s for 200 mM NaCl” and the solution viscosity at 200 mM NaCl was determined as 0.886 mPa·s.
As for “Tpm1.9, cytoplasmic tropomyosin isoform (human, TPM1 gene product) (natural protein)”, the bending stiffness of Tpm–F-actin filaments, two-beam optical trap, median (IQT, N); F-actin alone 2.35 in data set [1] was 4.8e-26 N∙m^2. In data set [2], the K50% came to 0.79 µM. For the same substance, in data set [3], the T diss (temperature of half-dissociation of Tpm from F-actin) came out at 46.2 °C.
